Measured values from patent US20250073311A1, “DOSAGE REGIME” (ZEALAND PHARMA A/S, priority 2021, published 2025).
Numbered stars: 1 amine (or outer) side, 2 acyl side, 3 side chain; on linkers, the order of the positions; unused ones are H or OH. Square brackets hold non-standard residues; d marks the D form. Side chains are listed from the residue outwards. * marks the point of attachment. C18 diacid = O=C(O)CCCCCCCCCCCCCCCCC(=O)*; γGlu = O=C(O)[C@H](CCC(=O)[*:2])N[*:1]; Palmitoyl = CCCCCCCCCCCCCCCC(=O)*; AEEA = NCCOCCOCC(=O)O; Aib = CC(C)(N)C(=O)O; βAla = NCCC(=O)O

How the values were obtained:
[1] = target: human glucagon-like peptide 1 receptor (GLP-1R) (human, UniProt P43220); assay: cell-based or functional assay
[2] = target: T1, human GLP-2 receptor (hGLP2-R) (human, UniProt O95838); assay: cell-based or functional assay
T1 sequence: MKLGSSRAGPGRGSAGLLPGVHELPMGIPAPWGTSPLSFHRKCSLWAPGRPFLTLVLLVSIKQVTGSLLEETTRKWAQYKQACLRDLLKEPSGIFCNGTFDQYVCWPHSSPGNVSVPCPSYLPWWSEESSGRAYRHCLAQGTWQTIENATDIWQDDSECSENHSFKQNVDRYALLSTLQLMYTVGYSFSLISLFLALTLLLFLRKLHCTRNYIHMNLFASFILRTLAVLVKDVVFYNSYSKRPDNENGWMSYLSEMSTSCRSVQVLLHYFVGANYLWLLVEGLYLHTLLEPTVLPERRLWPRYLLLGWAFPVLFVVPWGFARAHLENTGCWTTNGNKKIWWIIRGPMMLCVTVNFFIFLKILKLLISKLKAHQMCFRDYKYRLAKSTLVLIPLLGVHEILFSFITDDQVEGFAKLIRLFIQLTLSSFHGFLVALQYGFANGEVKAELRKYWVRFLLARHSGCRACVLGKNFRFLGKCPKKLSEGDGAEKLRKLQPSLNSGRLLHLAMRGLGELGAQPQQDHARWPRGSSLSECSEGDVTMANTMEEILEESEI

B1: Compound 32 (peptide)
peptide: H-H[Aib]EGSFTSELATILDK([βAla-Palmitoyl])QAARDFIAWLQQHKITD-OH
SMILES: CCCCCCCCCCCCCCCC(=O)NCCC(=O)NCCCC[C@H](NC(=O)[C@H](CC(=O)O)NC(=O)[C@H](CC(C)C)NC(=O)[C@@H](NC(=O)[C@@H](NC(=O)[C@H](C)NC(=O)[C@H](CC(C)C)NC(=O)[C@H](CCC(=O)O)NC(=O)[C@H](CO)NC(=O)[C@@H](NC(=O)[C@H](Cc1ccccc1)NC(=O)[C@H](CO)NC(=O)CNC(=O)[C@H](CCC(=O)O)NC(=O)C(C)(C)NC(=O)[C@@H](N)Cc1c[nH]cn1)[C@@H](C)O)[C@@H](C)O)[C@@H](C)CC)C(=O)N[C@@H](CCC(N)=O)C(=O)N[C@@H](C)C(=O)N[C@@H](C)C(=O)N[C@@H](CCCNC(=N)N)C(=O)N[C@@H](CC(=O)O)C(=O)N[C@@H](Cc1ccccc1)C(=O)N[C@H](C(=O)N[C@@H](C)C(=O)N[C@@H](Cc1c[nH]c2ccccc12)C(=O)N[C@@H](CC(C)C)C(=O)N[C@@H](CCC(N)=O)C(=O)N[C@@H](CCC(N)=O)C(=O)N[C@@H](Cc1c[nH]cn1)C(=O)N[C@@H](CCCCN)C(=O)N[C@H](C(=O)N[C@H](C(=O)N[C@@H](CC(=O)O)C(=O)O)[C@@H](C)O)[C@@H](C)CC)[C@@H](C)CC
EC50 GLP-1 (nM), cAMP AlphaScreen [1]: 0.38 nM | EC50 GLP-2 (nM), cAMP AlphaScreen [2]: 0.46 nM

B2: Compound 29 (peptide)
peptide: H-H[Aib]EGSFTSELATILDK([γGlu-C18 diacid])QAARDFIAWLIKHKITD-OH
SMILES: CC[C@H](C)[C@H](NC(=O)[C@H](Cc1ccccc1)NC(=O)[C@H](CC(=O)O)NC(=O)[C@H](CCCNC(=N)N)NC(=O)[C@H](C)NC(=O)[C@H](C)NC(=O)[C@H](CCC(N)=O)NC(=O)[C@H](CCCCNC(=O)CC[C@H](NC(=O)CCCCCCCCCCCCCCCCC(=O)O)C(=O)O)NC(=O)[C@H](CC(=O)O)NC(=O)[C@H](CC(C)C)NC(=O)[C@@H](NC(=O)[C@@H](NC(=O)[C@H](C)NC(=O)[C@H](CC(C)C)NC(=O)[C@H](CCC(=O)O)NC(=O)[C@H](CO)NC(=O)[C@@H](NC(=O)[C@H](Cc1ccccc1)NC(=O)[C@H](CO)NC(=O)CNC(=O)[C@H](CCC(=O)O)NC(=O)C(C)(C)NC(=O)[C@@H](N)Cc1c[nH]cn1)[C@@H](C)O)[C@@H](C)O)[C@@H](C)CC)C(=O)N[C@@H](C)C(=O)N[C@@H](Cc1c[nH]c2ccccc12)C(=O)N[C@@H](CC(C)C)C(=O)N[C@H](C(=O)N[C@@H](CCCCN)C(=O)N[C@@H](Cc1c[nH]cn1)C(=O)N[C@@H](CCCCN)C(=O)N[C@H](C(=O)N[C@H](C(=O)N[C@@H](CC(=O)O)C(=O)O)[C@@H](C)O)[C@@H](C)CC)[C@@H](C)CC
EC50 GLP-1 (nM), cAMP AlphaScreen [1]: 0.31 nM | EC50 GLP-2 (nM), cAMP AlphaScreen [2]: 0.29 nM

B3: Compound 33 (peptide)
peptide: H-H[Aib]EGSFTSELATILDK([AEEA-γGlu-C18 diacid])QAARDFIAWLYQHKITD-OH
SMILES: CC[C@H](C)[C@H](NC(=O)[C@H](Cc1ccccc1)NC(=O)[C@H](CC(=O)O)NC(=O)[C@H](CCCNC(=N)N)NC(=O)[C@H](C)NC(=O)[C@H](C)NC(=O)[C@H](CCC(N)=O)NC(=O)[C@H](CCCCNC(=O)COCCOCCNC(=O)CC[C@H](NC(=O)CCCCCCCCCCCCCCCCC(=O)O)C(=O)O)NC(=O)[C@H](CC(=O)O)NC(=O)[C@H](CC(C)C)NC(=O)[C@@H](NC(=O)[C@@H](NC(=O)[C@H](C)NC(=O)[C@H](CC(C)C)NC(=O)[C@H](CCC(=O)O)NC(=O)[C@H](CO)NC(=O)[C@@H](NC(=O)[C@H](Cc1ccccc1)NC(=O)[C@H](CO)NC(=O)CNC(=O)[C@H](CCC(=O)O)NC(=O)C(C)(C)NC(=O)[C@@H](N)Cc1c[nH]cn1)[C@@H](C)O)[C@@H](C)O)[C@@H](C)CC)C(=O)N[C@@H](C)C(=O)N[C@@H](Cc1c[nH]c2ccccc12)C(=O)N[C@@H](CC(C)C)C(=O)N[C@@H](Cc1ccc(O)cc1)C(=O)N[C@@H](CCC(N)=O)C(=O)N[C@@H](Cc1c[nH]cn1)C(=O)N[C@@H](CCCCN)C(=O)N[C@H](C(=O)N[C@H](C(=O)N[C@@H](CC(=O)O)C(=O)O)[C@@H](C)O)[C@@H](C)CC
EC50 GLP-1 (nM), cAMP AlphaScreen [1]: 0.85 nM | EC50 GLP-2 (nM), cAMP AlphaScreen [2]: 0.072 nM

B4: Compound 31 (peptide)
peptide: H-H[Aib]EGSFTSELATILDK([γGlu-C18 diacid])QAARDFIAWLISHKITD-OH
SMILES: CC[C@H](C)[C@H](NC(=O)[C@H](Cc1ccccc1)NC(=O)[C@H](CC(=O)O)NC(=O)[C@H](CCCNC(=N)N)NC(=O)[C@H](C)NC(=O)[C@H](C)NC(=O)[C@H](CCC(N)=O)NC(=O)[C@H](CCCCNC(=O)CC[C@H](NC(=O)CCCCCCCCCCCCCCCCC(=O)O)C(=O)O)NC(=O)[C@H](CC(=O)O)NC(=O)[C@H](CC(C)C)NC(=O)[C@@H](NC(=O)[C@@H](NC(=O)[C@H](C)NC(=O)[C@H](CC(C)C)NC(=O)[C@H](CCC(=O)O)NC(=O)[C@H](CO)NC(=O)[C@@H](NC(=O)[C@H](Cc1ccccc1)NC(=O)[C@H](CO)NC(=O)CNC(=O)[C@H](CCC(=O)O)NC(=O)C(C)(C)NC(=O)[C@@H](N)Cc1c[nH]cn1)[C@@H](C)O)[C@@H](C)O)[C@@H](C)CC)C(=O)N[C@@H](C)C(=O)N[C@@H](Cc1c[nH]c2ccccc12)C(=O)N[C@@H](CC(C)C)C(=O)N[C@H](C(=O)N[C@@H](CO)C(=O)N[C@@H](Cc1c[nH]cn1)C(=O)N[C@@H](CCCCN)C(=O)N[C@H](C(=O)N[C@H](C(=O)N[C@@H](CC(=O)O)C(=O)O)[C@@H](C)O)[C@@H](C)CC)[C@@H](C)CC
EC50 GLP-1 (nM), cAMP AlphaScreen [1]: 0.27 nM | EC50 GLP-2 (nM), cAMP AlphaScreen [2]: 0.24 nM

B5: Compound 30 (peptide)
peptide: H-H[Aib]EGSFTSELATILDK([γGlu-C18 diacid])QAARDFIAWLIRHKITD-OH
SMILES: CC[C@H](C)[C@H](NC(=O)[C@H](Cc1ccccc1)NC(=O)[C@H](CC(=O)O)NC(=O)[C@H](CCCNC(=N)N)NC(=O)[C@H](C)NC(=O)[C@H](C)NC(=O)[C@H](CCC(N)=O)NC(=O)[C@H](CCCCNC(=O)CC[C@H](NC(=O)CCCCCCCCCCCCCCCCC(=O)O)C(=O)O)NC(=O)[C@H](CC(=O)O)NC(=O)[C@H](CC(C)C)NC(=O)[C@@H](NC(=O)[C@@H](NC(=O)[C@H](C)NC(=O)[C@H](CC(C)C)NC(=O)[C@H](CCC(=O)O)NC(=O)[C@H](CO)NC(=O)[C@@H](NC(=O)[C@H](Cc1ccccc1)NC(=O)[C@H](CO)NC(=O)CNC(=O)[C@H](CCC(=O)O)NC(=O)C(C)(C)NC(=O)[C@@H](N)Cc1c[nH]cn1)[C@@H](C)O)[C@@H](C)O)[C@@H](C)CC)C(=O)N[C@@H](C)C(=O)N[C@@H](Cc1c[nH]c2ccccc12)C(=O)N[C@@H](CC(C)C)C(=O)N[C@H](C(=O)N[C@@H](CCCNC(=N)N)C(=O)N[C@@H](Cc1c[nH]cn1)C(=O)N[C@@H](CCCCN)C(=O)N[C@H](C(=O)N[C@H](C(=O)N[C@@H](CC(=O)O)C(=O)O)[C@@H](C)O)[C@@H](C)CC)[C@@H](C)CC
EC50 GLP-1 (nM), cAMP AlphaScreen [1]: 0.31 nM | EC50 GLP-2 (nM), cAMP AlphaScreen [2]: 0.38 nM
